From article PMC10885103 (2023)
Bridges are numbered along the chain shown (N, C = ends). Where no end group is shown, it is not given here. [ ]: non-standard residue; d: D form.

Target: T1, TNFR-1 CRD2 72-116 (Homo sapiens, UniProt P19438)
T1 chain: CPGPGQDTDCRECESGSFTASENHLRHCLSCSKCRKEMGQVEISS
Assay: grating-coupled interferometry

Kd: 1000 nM
Binder: [dC](cysteinyl)[dF][dH][dC][dI][dW][dL]G[dD][dE][dC] (disulfide 4-11; also: CRD2 with C-terminal biotin linker) [d-TCPB]
